{
  "source": "paper PMC6318328",
  "about": "“Structural insights into trans-histone regulation of H3K4 methylation by unique histone H4 binding of MLL3/4” (Nature Communications, 2019)",
  "biological_target": "MLL3 ePHD6 E1097A (human) (UniProt Q8NEZ4)",
  "assay": "ITC; peptide (1–2 mM) in the syringe injected into protein (50–100 μM) in the cell; 25 °C; 20 mM Tris pH 7.5, 150 mM NaCl; single-site binding model",
  "data": [
    {"substance": "histone H4 peptide H4_(11–21) (from UniProt P62805 12-22)", "values": [
      {"measurement": "fold reduction of binding against the wild type", "result": 2, "unit": "fold"}
    ]}
  ]
}
